The data set concerns the molecule itself. Description: crystal structure; BsPatB, sitting drop, 0.2 M ammonium acetate pH 7.1, 20% PEG 3,350.

B1: Bacillus subtilis 168 PatB (PLP-bound C-S lyase) (enzyme)
chain: MGGGFAMNFDKREERLGTQSVKWDKTGELFGVTDALPMWVADMDFRAPEAITEALKERLDHGIFGYTTPDQKTKDAVCGWMQNRHGWKVNPESITFSPGVVTALSMAVQAFTEPGDQVVVQPPVYTPFYHMVEKNGRHILHNPLLEKDGAYAIDFEDLETKLSDPSVTLFILCNPHNPSGRSWSREDLLKLGELCLEHGVTVVSDEIHSDLMLYGHKHTPFASLSDDFADISVTCAAPSKTFNIAGLQASAIIIPDRLKRAKFSASLQRNGLGGLNAFAVTAIEAAYSKGGPWLDELITYIEKNMNEAEAFLSTELPKVKMMKPDASYLIWLDFSAYGLSDAELQQRMLKKGKVILEPGTKYGPGGEGFMRLNAGCSLATLQDGLRRIKAALSENLYFQG
modifications: PLP covalently bound to Lys234 (internal aldimine)
notes: N-terminal overhang from cloning into pBADcLIC; PatB (C-S lyase, cystathionine beta-lyase activity) of Bacillus subtilis 168, full-length gene; C-terminal linker of the vector before the His10 tag; also called BsPatB; source: E. coli MC1061, pBADcLIC, purified (HisTrap)
B1: the “stoichiometry N” value amounted to 2.

By stoichiometry N is commonly meant the number of molecules, sites or subunits per partner or assembly.

Source of the values: article PMC7385124, “The molecular basis of thioalcohol production in human body odour” (Scientific Reports, 2020).
